Our source for the abundance fitness values is the Human Domainome abundance scans (Beltran et al. 2025).

± gives the uncertainty stated by the source.

B1: Chromodomain-helicase-DNA-binding protein 5, residues 411 to 463; numbered along this chain, Q8TDI0 (parent)
chain: EEDDHMEFCRVCKDGGELLCCDACPSSYHLHCLNPPLPEIPNGEWLCPRCTCP

The variants in the series derive from B1. Nature of the series: abundance fitness (aPCA) (normalised: wild type 0, dead -1); higher = more abundant; growth selection in yeast, the domain comes from the species named. Conditions: Homo sapiens.
Turning to T51M, the abundance fitness is -0.296 ± 0.095.

Regarding T51N, the abundance fitness amounted to 0.018 ± 0.051.

For T51W, the abundance fitness is -0.346 ± 0.075.

Take T51S: the abundance fitness was -0.089 ± 0.046.

T51P: the abundance fitness was -0.078 ± 0.089.

For T51C, the abundance fitness came out at 0.086 ± 0.083.

For T51F, the abundance fitness was -0.142 ± 0.12.

Consider T51Q, for which the abundance fitness was found to be 0.116 ± 0.092.

Take T51R: the abundance fitness was -0.035 ± 0.053.

As for T51D, the abundance fitness was found to be 0.202 ± 0.099.

For the variant T51K, the abundance fitness was 0.049 ± 0.089.

As to T51G, the abundance fitness is -0.052 ± 0.063.

In the case of T51A, the abundance fitness is -0.061 ± 0.046.

With R49F, the abundance fitness was found to be 0.011 ± 0.1.

Regarding R49H, the abundance fitness is -0.223 ± 0.11.

On to R49C, for which the abundance fitness was 0.021 ± 0.057.

As for R49S, the abundance fitness was found to be 0.04 ± 0.055.

Consider R49A, for which the abundance fitness was -0.017 ± 0.056.

For R49Y, the abundance fitness was -0.088 ± 0.1.

For the variant R49V, the abundance fitness is 0.033 ± 0.044.

For the variant R49W, the abundance fitness is -0.073 ± 0.064.

As for R49P, the abundance fitness was -0.106 ± 0.063.

Turning to R49L, the abundance fitness was -0.094 ± 0.048.

Consider R49I, for which the abundance fitness was -0.305 ± 0.11.

For R49T, the abundance fitness is 0.112 ± 0.069.

Turning to R49E, the abundance fitness was 0.148 ± 0.054.

Take R49N: the abundance fitness came to 0.013 ± 0.1.

On to R49M, for which the abundance fitness was determined as 0.017 ± 0.067.

R49D: the abundance fitness stood at 0.101 ± 0.049.

For R49Q, the abundance fitness worked out at 0.156 ± 0.069.

Regarding C47Y, the abundance fitness was -0.929 ± 0.11.

On to P53R, for which the abundance fitness is -0.669 ± 0.29.

Turning to P53A, the abundance fitness was -0.091 ± 0.14.

Take P53G: the abundance fitness is -0.097 ± 0.06.

Turning to P53T, the abundance fitness is -0.083 ± 0.16.

On to P53S, for which the abundance fitness was -0.153 ± 0.13.

Take P53L: the abundance fitness is 0.13 ± 0.15.

C50N: the abundance fitness was -0.591 ± 0.11.

With C50I, the abundance fitness was -0.751 ± 0.059.

For the variant C50D, the abundance fitness is -0.4 ± 0.062.

On to C50A, for which the abundance fitness was -0.628 ± 0.055.

As to C50V, the abundance fitness was -0.675 ± 0.057.

For the variant C50T, the abundance fitness is -0.74 ± 0.064.

C50F: the abundance fitness was -0.756 ± 0.093.

C50R: the abundance fitness was -0.686 ± 0.049.

Regarding C50W, the abundance fitness is -0.477 ± 0.066.

C50M: the abundance fitness was -0.77 ± 0.065.

For the variant C50G, the abundance fitness is -0.613 ± 0.05.

With C50Y, the abundance fitness was -0.568 ± 0.11.

As for C50P, the abundance fitness was -0.517 ± 0.052.

C50H: the abundance fitness was determined as 0.008 ± 0.058.

With C50K, the abundance fitness is -0.598 ± 0.065.

C50Q: the abundance fitness is -0.619 ± 0.049.

Turning to C50S, the abundance fitness is -0.702 ± 0.053.

On to C52G, for which the abundance fitness was determined as 0.029 ± 0.055.

Regarding C52I, the abundance fitness is -0.239 ± 0.099.

In the case of C52P, the abundance fitness is 0.11 ± 0.053.

Regarding C52R, the abundance fitness was -0.026 ± 0.045.

On to C52D, for which the abundance fitness was 0.262 ± 0.085.

For C52A, the abundance fitness stood at 0.067 ± 0.054.

For the variant C52M, the abundance fitness was determined as 0.021 ± 0.053.

On to C52H, for which the abundance fitness amounted to 0.189 ± 0.1.

C52L: the abundance fitness stood at 0.018 ± 0.049.

C52K: the abundance fitness is -0.198 ± 0.14.

In the case of C52N, the abundance fitness worked out at 0.222 ± 0.11.

With C52S, the abundance fitness was determined as 0.138 ± 0.061.

C52E: the abundance fitness was found to be 0.126 ± 0.08.

As to C52Q, the abundance fitness is -0.121 ± 0.11.

Regarding C52V, the abundance fitness is 0.062 ± 0.055.

On to C52F, for which the abundance fitness was -0.141 ± 0.098.

Consider C52Y, for which the abundance fitness was -0.295 ± 0.092.
